Laboratory results reported in patent US20180125892A1 (published 2018).
Residue numbers refer to the chain shown, from its start.

T1: human CD20 (human, UniProt P11836 1-297)
T1 construct: whole, on cells; cell-surface antigen; also called MS4A1
T1 sequence (looked up): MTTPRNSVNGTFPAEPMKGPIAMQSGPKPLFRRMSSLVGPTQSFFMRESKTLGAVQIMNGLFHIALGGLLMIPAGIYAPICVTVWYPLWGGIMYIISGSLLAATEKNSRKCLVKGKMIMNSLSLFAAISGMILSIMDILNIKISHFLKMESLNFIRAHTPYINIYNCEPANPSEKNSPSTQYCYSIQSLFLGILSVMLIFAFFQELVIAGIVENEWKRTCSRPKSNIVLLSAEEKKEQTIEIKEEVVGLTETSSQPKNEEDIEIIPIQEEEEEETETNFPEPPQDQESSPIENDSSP

B1: CD20-C3H1 CAR (other)
chain: QVQLVQSGAEVKKPGASVKVSCKASGYTFTNYNLHWVRQAPGQGLEWMGAIYPGNYDTSYNQKFKGRVTMTADKSTSTAYMELSSLRSEDTAVYYCARVDFGHSRYWYFDVWGQGTTVTVSSGGGGSGGGGSGGGGSGGGGSEIVLTQSPATLSLSPGERATLSCRATSSVSSMNWYQQKPGQAPRPLIHATSNLASGIPARFSGSGSGTDYTLTISSLEPEDAAVYYCQQWTFNPPTFGQGTKLEIKTTTPAPRPPTPAPTIASQPLSLRPEACRPAAGGAVHTRGLDFACDIYIWAPLAGTCGVLLLSLVITLYCKRGRKKLLYIFKQPFMRPVQTTQEEDGCSCRFPEEEEGGCELRVKFSRSADAPAYQQGQNQLYNELNLGRREEYDVLDKRRGRDPEMGGKPRRKNPQEGLYNELQKDKMAEAYSEIGMKGERRRGKGHDGLYQGLSTATKDTYDALHMQALPPR
notes: CAR on cell surface; residues 1-21 = signal peptide
B2: CD20-C5H4 CAR (other)
chain: QVQLVQSGAEVKKPGSSVKVSCKASGYTFTSYNMHWVRQAPGQGLEWMGAIYPGNGDTSYNPKFKGRVTITADKSTRTAYMELSSLRSEDTAVYYCARSYFYGSSSWYFDVWGQGTTVTVSSGGGGSGGGGSGGGGSGGGGSDIQLTQSPSFLSASVGDRVTITCRASSSVSSMHWYQQKPGKAPKPLIFATSNLASGVPSRFSGSGSGTEYTLTISSLQPEDFATYYCQQWIFNPPTFGGGTKVEIKTTTPAPRPPTPAPTIASQPLSLRPEACRPAAGGAVHTRGLDFACDIYIWAPLAGTCGVLLLSLVITLYCKRGRKKLLYIFKQPFMRPVQTTQEEDGCSCRFPEEEEGGCELRVKFSRSADAPAYQQGQNQLYNELNLGRREEYDVLDKRRGRDPEMGGKPRRKNPQEGLYNELQKDKMAEAYSEIGMKGERRRGKGHDGLYQGLSTATKDTYDALHMQALPPR
notes: as for B1
B3: CD20-C8H4 CAR (other)
chain: QVQLVQSGAEVKKPGSSVKVSCKASGYTFTRYNMHWVRQAPGQGLEWMGAIYPGNGDTSYSQKFKGRVTITADKSTSTAYMELSSLRSEDTAVYYCARSFFYGSSDWYFDVWGQGTTVTVSSGGGGSGGGGSGGGGSGGGGSDIQLTQSPSFLSASVGDRVTITCRASSSVNNMHWYQQKPGKAPKPLIYATSNLASGVPSRFSGSGSGTEYTLTISSLQPEDFATYYCQQWIFNPPTFGQGTKLEIKTTTPAPRPPTPAPTIASQPLSLRPEACRPAAGGAVHTRGLDFACDIYIWAPLAGTCGVLLLSLVITLYCKRGRKKLLYIFKQPFMRPVQTTQEEDGCSCRFPEEEEGGCELRVKFSRSADAPAYQQGQNQLYNELNLGRREEYDVLDKRRGRDPEMGGKPRRKNPQEGLYNELQKDKMAEAYSEIGMKGERRRGKGHDGLYQGLSTATKDTYDALHMQALPPR
notes: as for B1
B4: CD20-C5H2 CAR (other)
chain: B2 chain with S16A, I70M
notes: as for B1
B5: CD20-C3H2 CAR (other)
chain: QVQLVQSGAEVKKPGASVKVSCKASGYTFTNYNLHWVRQAPGQGLEWMGAIYPGNYDTSYNQKFKGRVTMTADKSTSTAYMELSSLRSEDTAVYYCARVDFGHSRYWYFDVWGQGTTVTVSSGGGGSGGGGSGGGGSGGGGSDIQLTQSPSFLSASVGDRVTITCRATSSVSSMNWYQQKPGKAPKPLIHATSNLASGVPSRFSGSGSGTEYTLTISSLQPEDFATYYCQQWTFNPPTFGQGTKLEIKTTTPAPRPPTPAPTIASQPLSLRPEACRPAAGGAVHTRGLDFACDIYIWAPLAGTCGVLLLSLVITLYCKRGRKKLLYIFKQPFMRPVQTTQEEDGCSCRFPEEEEGGCELRVKFSRSADAPAYQQGQNQLYNELNLGRREEYDVLDKRRGRDPEMGGKPRRKNPQEGLYNELQKDKMAEAYSEIGMKGERRRGKGHDGLYQGLSTATKDTYDALHMQALPPR
notes: as for B1
B6: CD20-C8H2 CAR (other)
chain: B3 chain with S16A, G44R, T76A
notes: as for B1
B7: CD20-C2H1 CAR (other)
chain: QVQLVQSGAEVKKPGASVKVSCKASGYTFTNYWMHWVRQAPGQGLEWMGFITPTTGYPEYNQKFKDRVTMTADKSTSTAYMELSSLRSEDTAVYYCARRKVGKGVYYALDYWGQGTTVTVSSGGGGSGGGGSGGGGSGGGGSDIQMTQSPSSLSASVGDRVTITCRASGNIHNYLAWYQQKPGKVPKLLIYNTKTLADGVPSRFSGSGSGTDYTLTISSLQPEDVATYYCQHFWSSPWTFGGGTKVEIKTTTPAPRPPTPAPTIASQPLSLRPEACRPAAGGAVHTRGLDFACDIYIWAPLAGTCGVLLLSLVITLYCKRGRKKLLYIFKQPFMRPVQTTQEEDGCSCRFPEEEEGGCELRVKFSRSADAPAYQQGQNQLYNELNLGRREEYDVLDKRRGRDPEMGGKPRRKNPQEGLYNELQKDKMAEAYSEIGMKGERRRGKGHDGLYQGLSTATKDTYDALHMQALPPR
notes: CAR on cell surface
B8: CD20-C2H4 CAR (other)
chain: B7 chain with A16S, M70I, D143A, Q145R, S151F, G183A, V185A, L189F, V225F
notes: as for B1
B9: CD20-C2H2 CAR (other)
chain: B7 chain with A16S, M70I
notes: as for B1
B10: CD20-C2H3 CAR (other)
chain: B7 chain with D143A, Q145R, S151F, G183A, V185A, L189F, V225F
notes: as for B1
B11: CD20-C8H1 CAR (other)
chain: QVQLVQSGAEVKKPGASVKVSCKASGYTFTRYNMHWVRQAPGQRLEWMGAIYPGNGDTSYSQKFKGRVTITADKSASTAYMELSSLRSEDTAVYYCARSFFYGSSDWYFDVWGQGTTVTVSSGGGGSGGGGSGGGGSGGGGSEIVLTQSPDFQSVTPKEKVTITCRASSSVNNMHWYQQKPDQSPKPLIYATSNLASGVPSRFSGSGSGTDYTLTINSLEAEDAATYYCQQWIFNPPTFGQGTKLEIKTTTPAPRPPTPAPTIASQPLSLRPEACRPAAGGAVHTRGLDFACDIYIWAPLAGTCGVLLLSLVITLYCKRGRKKLLYIFKQPFMRPVQTTQEEDGCSCRFPEEEEGGCELRVKFSRSADAPAYQQGQNQLYNELNLGRREEYDVLDKRRGRDPEMGGKPRRKNPQEGLYNELQKDKMAEAYSEIGMKGERRRGKGHDGLYQGLSTATKDTYDALHMQALPPR
notes: as for B1
B12: CD20-C8H3 CAR (other)
chain: B11 chain with A16S, R44G, A76T
notes: as for B1
B13: CD20-C5H1 CAR (other)
chain: QVQLVQSGAEVKKPGASVKVSCKASGYTFTSYNMHWVRQAPGQGLEWMGAIYPGNGDTSYNPKFKGRVTMTADKSTRTAYMELSSLRSEDTAVYYCARSYFYGSSSWYFDVWGQGTTVTVSSGGGGSGGGGSGGGGSGGGGSEIVLTQSPATLSLSPGERATLSCRASSSVSSMHWYQQKPGQAPRPLIFATSNLASGIPARFSGSGSGTDYTLTISSLEPEDAAVYYCQQWIFNPPTFGGGTKVEIKTTTPAPRPPTPAPTIASQPLSLRPEACRPAAGGAVHTRGLDFACDIYIWAPLAGTCGVLLLSLVITLYCKRGRKKLLYIFKQPFMRPVQTTQEEDGCSCRFPEEEEGGCELRVKFSRSADAPAYQQGQNQLYNELNLGRREEYDVLDKRRGRDPEMGGKPRRKNPQEGLYNELQKDKMAEAYSEIGMKGERRRGKGHDGLYQGLSTATKDTYDALHMQALPPR
notes: as for B1
B14: CD20-C5H3 CAR (other)
chain: B13 chain with A16S, M70I
notes: as for B1

The binders below were run against T1, human CD20 (assay: worded conclusion from JNL NFAT-luciferase reporter co-culture with CD20-positive cell lines).
Text: To evaluate the functional ability of CD20 CARs to activate JNL cells, they were co-cultured with target cancer cells to read out their activation by quantifying luciferase expression. The humanized scFv-based CARs CD20-C2H1, -C2H2, -C2H3, -C2H4, -C3H1, -C3H2, -C3H3, -C3H4, -C5H1, -C5H2, -C5H3, -C5H4, -C8H1, -C8H2, -C8H3, and -C8H4, were compared to CD20-8aBBz and CD20-3, -3m, -3J, -3H5k3, and -3H5k1. The control CARs CD20-3 and CD20-8aBBz were used in all assays to compare assay variation and/or act as a control. The EGFRvIII CAR T cells (CAR 2174, Johnson et al., Science Translational Medicine 2015) were used as non-targeting control.
JNL CART cells were co-cultured with the Burkitt's lymphoma line Raji (RRID: CVCL_0511) and the diffuse large B cell lymphoma (DLBCL) lines Pfeiffer (RRID: CVCL_3326), HBL-1 (RRID: CVCL_4213) and TMD8 (RRID: CVCL_A442); K562 (RRID: CVCL_0004), a chronic myelogenous leukemia (CML) cell line, served as CD20-negative control. Co-cultures were set up in 384-well plates at effector-to-target (E:T) ratios of 4:1, 2:1, 1:1 and 0.5:1 and incubated for 24 h, after which the expression of luciferase by the activated JNL CAR T cells was quantified by britelite plus Reporter Gene Assay System (PerkinElmer, Waltham, Mass.). The amount of light emitted from each well (Luminescence) was a direct read-out of JNL activation by the respective CAR. […] Some of the humanized scFvs, which were fused to the transmembrane and signaling domains of the CARs, seem to have improved the efficacy of CARs to activate JNL T cells. These were CD20-C2H1, -C2H3, -C5H1, -C5H2, and -C8H3.

Row | Binder | binding result
1 | B1 | binds
2 | B2 | binds
3 | B3 | binds
4 | B4 | binds
5 | B5 | binds
6 | B6 | binds
7 | B7 | binds
8 | B8 | binds
9 | B9 | binds
10 | B10 | binds
11 | B11 | binds
12 | B12 | binds
13 | B13 | binds
14 | B14 | binds
